For the test, the target named is CD3E on human peripheral blood T lymphocytes (human) (UniProt P07766). Nature of the test: cell-based or functional assay.
CD3E on human peripheral blood T lymphocytes (human), sequence (P07766 23-207): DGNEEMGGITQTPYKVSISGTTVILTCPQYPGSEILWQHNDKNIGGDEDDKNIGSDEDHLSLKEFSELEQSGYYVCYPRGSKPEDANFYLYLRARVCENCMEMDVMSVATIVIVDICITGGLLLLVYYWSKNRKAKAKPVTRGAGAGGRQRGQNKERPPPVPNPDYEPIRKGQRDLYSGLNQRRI

OKT3 (antibody) gave an IL-2 in the supernatant of PBMC after 48 h on plate-coated antibody (1 μg/mL), IL-2 ELISA of 400 pg/mL.

Values taken from patent publication CN109879965A.
